Reference: the Immune Epitope Database (IEDB)

Experiments:
HLA-C*05:01 = experiment: IEDB peptide-MHC binding, purified MHC/direct/fluorescence; filed as Kd, often an IC50 or EC50 that approximates it; ≥ and ≤ were set here for values at or beyond the usual limits of such assays; conditions: source organism: Influenza A virus (A/Harbin/1/1988(H1N2))
HLA-B*07:02 [1] = experiment: IEDB peptide-MHC binding, purified MHC/competitive/fluorescence; filed as Kd, often an IC50 or EC50 that approximates it; ≥ and ≤ were set here for values at or beyond the usual limits of such assays; conditions: source organism: Influenza A virus (A/Harbin/1/1988(H1N2))
HLA-B*35:01 = experiment: as above
HLA-B*51:01 = experiment: as above
HLA-A*69:01 [2] = experiment: IEDB peptide-MHC binding, purified MHC/direct/fluorescence; filed as Kd, often an IC50 or EC50 that approximates it; ≥ and ≤ were set here for values at or beyond the usual limits of such assays
HLA-A*24:02 = experiment: as above
HLA-A*03:01 [3] = experiment: as above
HLA-A*01:01 = experiment: as above
HLA-B*46:01 [4] = experiment: as above
HLA-B*07:02 [5] = experiment: as above
HLA-B*08:02 = experiment: as above; conditions: source organism: Cryptosporidium parvum Iowa II
HLA-B*40:01 = experiment: as above
HLA-B*27:05 = experiment: as above
HLA-B*44:02 = experiment: as above
HLA-B*15:01 [6] = experiment: as above
HLA-A*02:01 [7] = experiment: as above
HLA-B*15:09 = experiment: as above
HLA-B*58:01 = experiment: as above
HLA-B*18:01 [8] = experiment: as above
HLA-B*08:01 = experiment: as above
HLA-A*11:01 = experiment: as above
HLA-B*39:01 = experiment: IEDB peptide-MHC binding, purified MHC/competitive/fluorescence; filed as Kd, often an IC50 or EC50 that approximates it; ≥ and ≤ were set here for values at or beyond the usual limits of such assays
HLA-B*18:01 [9] = experiment: as above
HLA-A*03:01 [10] = experiment: as above
HLA-B*46:01 [11] = experiment: as above
HLA-A*29:02 = experiment: as above
HLA-B*57:01 = experiment: as above
HLA-B*27:03 = experiment: as above
HLA-B*15:01 [12] = experiment: as above
HLA-A*02:01 [13] = experiment: as above
HLA-B*15:17 = experiment: as above; conditions: source organism: Rickettsia felis URRWXCal2
HLA-A*26:01 = experiment: as above
HLA-A*02:19 = experiment: as above
HLA-A*31:01 = experiment: IEDB peptide-MHC binding, purified MHC/direct/fluorescence; filed as Kd, often an IC50 or EC50 that approximates it; ≥ and ≤ were set here for values at or beyond the usual limits of such assays; conditions: source organism: Influenza A virus (A/swine/Cotes d'Armor/800/00(H1N2))
HLA-A*02:11 = experiment: as above; conditions: source organism: Influenza A virus H3N2
HLA-A*02:16 [14] = experiment: as above; conditions: source organism: Influenza A virus H3N2
HLA-A*69:01 [15] = experiment: IEDB peptide-MHC binding, purified MHC/competitive/fluorescence; filed as Kd, often an IC50 or EC50 that approximates it; ≥ and ≤ were set here for values at or beyond the usual limits of such assays; conditions: source organism: Cryptosporidium parvum Iowa II
HLA-A*02:12 = experiment: as above; conditions: source organism: Cryptosporidium parvum Iowa II
HLA-A*02:16 [16] = experiment: as above; conditions: source organism: Cryptosporidium parvum Iowa II
HLA-A*68:02 = experiment: as above; conditions: source organism: Cryptosporidium parvum Iowa II
HLA-A*02:03 = experiment: as above; conditions: source organism: Cryptosporidium parvum Iowa II
HLA-A*24:03 = experiment: IEDB peptide-MHC binding, purified MHC/direct/fluorescence; filed as Kd, often an IC50 or EC50 that approximates it; ≥ and ≤ were set here for values at or beyond the usual limits of such assays; conditions: source organism: Orthohantavirus hantanense
HLA-A*23:01 = experiment: as above; conditions: source organism: Orthohantavirus hantanense
[17] = source organism: Influenza A virus (A/Harbin/1/1988(H1N2))
[18] = source organism: Cryptosporidium parvum
[19] = source organism: Cryptosporidium parvum Iowa II
[20] = source organism: Giardia lamblia ATCC 50803
[21] = source organism: Rickettsia felis URRWXCal2
[22] = source organism: Influenza A virus (A/swine/Cotes d'Armor/800/00(H1N2))
[23] = source organism: Influenza A virus (A/Puerto Rico/8/34/Mount Sinai(H1N1))
[24] = source organism: Influenza A virus (A/Aichi/2/1994(H3N2))

## LPFQNVHPV
HLA-C*05:01
  Kd: ≥ 20 µM
HLA-B*07:02 [1]
  Kd: 0.161 µM
HLA-B*35:01; [17]
  Kd: 0.0004 µM
HLA-B*51:01; [17]
  Kd: 1.49 µM

## NTSTCFQEY
HLA-A*69:01 [2]; [18]
  Kd: ≥ 20 µM
HLA-A*24:02; [18]
  Kd: ≥ 20 µM
HLA-A*03:01 [3]; [18]
  Kd: ≥ 20 µM
HLA-A*01:01; [18]
  Kd: 0.0305 µM
HLA-B*46:01 [4]; [18]
  Kd: ≥ 20 µM
HLA-B*07:02 [5]; [18]
  Kd: ≥ 20 µM
HLA-B*08:02
  Kd: ≥ 20 µM
HLA-B*40:01; [18]
  Kd: ≥ 20 µM
HLA-B*27:05; [18]
  Kd: ≥ 20 µM
HLA-B*44:02; [18]
  Kd: ≥ 20 µM
HLA-B*15:01 [6]; [18]
  Kd: 0.592 µM
HLA-A*02:01 [7]; [18]
  Kd: ≥ 20 µM
HLA-B*15:09; [19]
  Kd: ≥ 20 µM
HLA-B*58:01; [18]
  Kd: ≥ 20 µM

## IFKNLTKPL
HLA-A*69:01 [2]; [20]
  Kd: ≥ 20 µM
HLA-B*18:01 [8]; [20]
  Kd: ≥ 20 µM
HLA-A*24:02; [20]
  Kd: ≥ 20 µM
HLA-A*03:01 [3]; [20]
  Kd: ≥ 20 µM
HLA-A*01:01; [20]
  Kd: ≥ 20 µM
HLA-B*07:02 [5]; [20]
  Kd: ≥ 20 µM
HLA-B*40:01; [20]
  Kd: ≥ 20 µM
HLA-B*27:05; [20]
  Kd: ≥ 20 µM
HLA-B*44:02; [20]
  Kd: ≥ 20 µM
HLA-B*08:01; [20]
  Kd: 0.774 µM
HLA-B*15:01 [6]; [20]
  Kd: 0.757 µM
HLA-A*02:01 [7]; [20]
  Kd: ≥ 20 µM
HLA-B*15:09; [20]
  Kd: ≥ 20 µM
HLA-B*58:01; [20]
  Kd: ≥ 20 µM
HLA-A*11:01; [20]
  Kd: ≥ 20 µM

## RYMRVYNLW
HLA-A*24:02; [20]
  Kd: 0.002 µM

## VVPSYIPLV
HLA-B*39:01; source organism: Homo sapiens
  Kd: ≥ 20 µM
HLA-B*18:01 [9]; source organism: Homo sapiens
  Kd: ≥ 20 µM
HLA-A*03:01 [10]; source organism: Homo sapiens
  Kd: ≥ 20 µM
HLA-B*46:01 [11]; source organism: Homo sapiens
  Kd: ≥ 20 µM
HLA-A*29:02; source organism: Homo sapiens
  Kd: ≥ 20 µM
HLA-B*57:01; source organism: Homo sapiens
  Kd: ≥ 20 µM
HLA-B*27:03; source organism: Homo sapiens
  Kd: ≥ 20 µM
HLA-B*15:01 [12]; source organism: Homo sapiens
  Kd: ≥ 20 µM
HLA-A*02:01 [13]; source organism: Homo sapiens
  Kd: 0.0007 µM

## QYLFSLTYV
HLA-B*39:01; [21]
  Kd: ≥ 20 µM
HLA-B*15:17
  Kd: ≥ 20 µM
HLA-A*03:01 [10]; [21]
  Kd: ≥ 20 µM
HLA-A*26:01; [21]
  Kd: ≥ 20 µM
HLA-B*46:01 [11]; [21]
  Kd: ≥ 20 µM
HLA-A*29:02; [21]
  Kd: 8 µM
HLA-B*57:01; [21]
  Kd: ≥ 20 µM
HLA-B*27:03; [21]
  Kd: ≥ 20 µM
HLA-A*02:19; [21]
  Kd: ≥ 20 µM
HLA-B*51:01; [21]
  Kd: ≥ 20 µM
HLA-B*15:01 [12]; [21]
  Kd: ≥ 20 µM
HLA-A*02:01 [13]; [21]
  Kd: 1.19 µM

## GMDPRMCSL
HLA-A*69:01 [2]; [22]
  Kd: ≥ 20 µM
HLA-B*18:01 [8]; [22]
  Kd: ≥ 20 µM
HLA-A*24:02; [22]
  Kd: ≥ 20 µM
HLA-A*03:01 [3]; [22]
  Kd: ≥ 20 µM
HLA-A*01:01; [22]
  Kd: ≥ 20 µM
HLA-A*31:01
  Kd: ≥ 20 µM
HLA-A*02:11
  Kd: 0.011 µM
HLA-A*02:16 [14]
  Kd: 0.019 µM
HLA-B*46:01 [4]; [22]
  Kd: ≥ 20 µM
HLA-B*07:02 [5]; [23]
  Kd: 1.66 µM
HLA-B*40:01; [22]
  Kd: ≥ 20 µM
HLA-B*27:05; [22]
  Kd: ≥ 20 µM
HLA-B*44:02; [22]
  Kd: ≥ 20 µM
HLA-B*08:01; [23]
  Kd: 6.22 µM
HLA-B*15:01 [6]; [22]
  Kd: ≥ 20 µM
HLA-A*02:01 [7]; [23]
  Kd: 0.392 µM
HLA-B*58:01; [22]
  Kd: ≥ 20 µM
HLA-A*11:01; [22]
  Kd: ≥ 20 µM

## KSFSAGMFH
HLA-A*69:01 [15]
  Kd: ≥ 20 µM
HLA-B*39:01; [19]
  Kd: ≥ 20 µM
HLA-B*18:01 [9]; [19]
  Kd: ≥ 20 µM
HLA-A*02:12
  Kd: ≥ 20 µM
HLA-A*26:01; [19]
  Kd: ≥ 20 µM
HLA-A*02:16 [16]
  Kd: ≥ 20 µM
HLA-B*46:01 [11]; [19]
  Kd: ≥ 20 µM
HLA-A*29:02; [19]
  Kd: ≥ 20 µM
HLA-B*57:01; [19]
  Kd: 0.574 µM
HLA-B*27:03; [19]
  Kd: ≥ 20 µM
HLA-A*02:19; [19]
  Kd: ≥ 20 µM
HLA-B*51:01; [19]
  Kd: ≥ 20 µM
HLA-A*02:01 [13]; [19]
  Kd: ≥ 20 µM
HLA-A*68:02
  Kd: ≥ 20 µM
HLA-A*02:03
  Kd: ≥ 20 µM

## FQNVNRITY
HLA-B*35:01; [24]
  Kd: 0.0394 µM
HLA-B*15:01 [12]; [24]
  Kd: 0.0751 µM

## QWLIEPCKL
HLA-A*24:02; source organism: Orthohantavirus hantanense
  Kd: 0.155 µM
HLA-A*24:03
  Kd: 0.205 µM
HLA-A*23:01
  Kd: 0.18 µM
